Laboratory results published in US20240069033A1, “METHOD FOR SCREENING FOR CANDIDATE MOLECULE CAPABLE OF FORMING COMPLEX IN CONJUNCTION WITH PLURALITY OF TARGET MOLECULES” (Chugai Seiyaku Kabushiki Kaisha, priority 2020, published 2024).

B1: Kpep-splitUb (N): mRNA Display molecule of splitUb(N) with positively charged K-peptide (SEQ ID NO: 55) (conjugate)
chain: MKVSALKENVSALKEKVSALTEKVSALKEKVSALKEGSGSGSGSMQIFVKTLTGKTATLEVEPSDTIENVKAKIQDKEGIPGSGSGSGSKK
modifications: mRNA display linkage; Kpep-splitUb(N)-GS4
B2: Epep-splitUb (N): mRNA Display molecule of splitUb(N) with negatively charged E-peptide (SEQ ID NO: 56) (conjugate)
chain: MKVSALENEVSALEKEVSVLEKEVSALEKEVRALEKGSGSGSGSMQIFVKTLTGKTATLEVEPSDTIENVKAKIQDKEGIPGSGSGSGSKK
modifications: mRNA display linkage; Epep-splitUb(N)-GS4
B3: SNAP(full): mRNA Display molecule of full-length SNAP tag with C-terminal GS linker (SEQ ID NO: 44) (conjugate)
chain: MDKDCEMKRTTLDSPLGKLELSGCEQGLHRIIFLGKGTSAADAVEVPAPAAVLGGPEPLMQATAWLNAYFHQPEAIEEFPVPALHHPVFQQESFTRQVLWKLLKVVKFGEVISYSHLAALAGNPAATAAVKTALSGNPVPILIPCHRVVQGDLDVGGYEGGLAVKEWLLAHEGHRLGKPGLGPAGGSAFKLEVNGSGSGSGSGSKK
modifications: mRNA display linkage; SNAP (full)-GS5
B4: SNAP(N): mRNA Display molecule of SNAP tag N-terminal fragment with C-terminal GS linker (SEQ ID NO: 42) (conjugate)
chain: MDKDCEMKRTTLDSPLGKLELSGCEQGLHRIIFLGKGTSAADAVEVPAPAAVLGGPEPLMQATAWLNAYFHQPEAIEEFPVPALHHPVFQQGSGSGSGSGSKK
modifications: mRNA display linkage; splitSNAP (N)-GS5
B5: SNAP(C): mRNA Display molecule of SNAP tag C-terminal fragment with C-terminal GS linker (SEQ ID NO: 43) (conjugate)
chain: MVDESFTRQVLWKLLKVVKFGEVISYSHLAALAGNPAATAAVKTALSGNPVPILIPCHRVVQGDLDVGGYEGGLAVKEWLLAHEGHRLGKPGLGPAGGSAFKLEVNGSGSGSGSGSKK
modifications: mRNA display linkage; SNAP (C)-GS5

Assays:
[1] = system: anti-ubiquitin antibody fixed bead; experiment: Complementation assay of splitUbiquitin with Kpep/Epep charged peptides using mRNA display; format: binding; conditions: for Recovered nucleic acid amount (molecules): Display molecules 0.2 μM each (pairs) or 0.4 μM (alone), anti-ubiquitin antibody beads, qPCR; for Recovery rate (%): apparent recovery rate corrected with display efficiency; for Apparent recovery rate (%): recovered/input nucleic acid amount
Protocol: Next, Display molecules composed of constructs (SEQ ID NO: 55 (P-11) to SEQ ID NO: 57 (P-13)) in which splitUb(N) and splitUb(C) each were added with a charged peptide sequence (K-peptide containing an amino acid having a positive charge) (sometimes referred to as “Kpep”) or E-peptide containing an amino acid having a negative charge (“Epep”)) were prepared. When the added peptides are attracted to each other by charges, splitUbs become in proximity to each other and recovered by an anti-ubiquitin antibody. Conversely, when the added peptides are repelled to each other by charges, splitUbs are not recovered. Once this is validated, the complexation of molecules added to splitUbs can be evaluated with the recovery rate through ubiquitin and anti-ubiquitin antibodies.
Reactions were made under the same conditions as in condition 1, except that, in condition 2, the Display molecule of Epep-splitUb(N) and the Display molecule of Epep-splitUb(C) were added at 0.2 μM; in condition 3, the Display molecule of Kpep-splitUb(N) was added at 0.4 μM; in condition 4, the Display molecule of Epep-splitUb(N) was added at 0.4 μM; and in condition 5, the Display molecule of Epep-splitUb(C) was added at 0.4 μM.

[2] = Complementation assay of splitSNAP-tag using mRNA display (reaction with SNAP-Biotin, streptavidin pull-down, qPCR); format: biochemical; conditions: for Recovery rate (%): apparent recovery rate corrected with display efficiency; for Recovered nucleic acid amount (molecules): reaction with SNAP-Biotin 37° C. 30 minutes, streptavidin pull-down, qPCR; for Apparent recovery rate (%): recovered / theoretical value of added nucleic acid amount
Protocol: To this solution, ¼ amount of a PBS solution containing 5 mM DTT, 2500 nM SNAP-Biotin (New England BioLabs, Inc.) was added, and the enzymatic reaction was performed at 37° C. for 30 minutes.

Row | Molecule | Recovered nucleic acid amount (molecules) [1] | Recovery rate (%) [1] | Apparent recovery rate (%) [1] | Recovery rate (%) [2] | recovery rate higher than other controls ([2]; in the presence of SNAP-Biotin) | Recovered nucleic acid amount (molecules) [2] | Apparent recovery rate (%) [2]
1 | B1 | 2.28E+06 molecules | 0.0008% | 0.0005% |  |  |  | 
2 | B2 | 3.77E+05 molecules | 0.0004% | 0.0001% |  |  |  | 
3 | B3 |  |  |  | 14.364% | at least 50 times | 4.78E+09 molecules | 4.740%
4 | B4 |  |  |  | 0.097% |  | 6.26E+07 molecules | 0.062%
5 | B5 |  |  |  | 0.035% |  | 6.76E+06 molecules | 0.007%
